The results in this text go back to patent US20230242658A1 (published 2023).

Experiment [1] deals with T1, cynomolgus monkey 4-1BB on CHO-K1 cells (cynomolgus monkey).
T1 chain: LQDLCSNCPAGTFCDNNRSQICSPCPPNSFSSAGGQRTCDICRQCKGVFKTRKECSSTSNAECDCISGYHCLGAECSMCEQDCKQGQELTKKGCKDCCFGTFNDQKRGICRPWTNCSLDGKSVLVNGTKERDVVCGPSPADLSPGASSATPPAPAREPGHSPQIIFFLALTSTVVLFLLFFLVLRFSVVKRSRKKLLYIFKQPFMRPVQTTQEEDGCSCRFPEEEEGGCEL
The experiment can be described thus: FACS; FIG. 12H. For orientation: In flow cytometry, cells or beads pass a laser one at a time.

Experiment [2] concerns the target T2, human 4-1BB on CHO-K1 cells (human, UniProt Q07011 24-255). Put plainly: FACS; FIG. 11I.
In experiment [3] the target is T2, human 4-1BB on CHO-K1 cells. The experiment can be described thus: FACS blocking of 4-1BBL; FIG. 14G.
Experiment [4] has the same target. The experiment can be described thus: FACS blocking of 4-1BBL binding.
For experiment [5], the target named is T1, cynomolgus monkey 4-1BB on CHO-K1 cells. Put plainly: FACS; FIG. 12I.
Experiment [6] concerns the target T2, human 4-1BB on CHO-K1 cells. Put plainly: FACS; FIG. 11J.
The target is the same in experiment [7]. The experiment can be described thus: FACS blocking of 4-1BBL; FIG. 14H.
Experiment [8] deals with T1, cynomolgus monkey 4-1BB on CHO-K1 cells. Put plainly: FACS.
Experiment [9] deals with T2, human 4-1BB on CHO-K1 cells. The experiment can be described thus: FACS.
Experiment [10] addresses human PD-L1 on CHO-K1 cells (human, UniProt Q9NZQ7 19-290). Put plainly: FACS.
Experiment [11] deals with T1, cynomolgus monkey 4-1BB on CHO-K1 cells. Put plainly: FACS; FIG. 12G.
Experiment [12] deals with T2, human 4-1BB on CHO-K1 cells. Put plainly: FACS; FIG. 11H.
Experiment [13] shares this target. Put plainly: FACS. The source holds these as a separate data set.
Target sequence in this assay (Q07011 24-255): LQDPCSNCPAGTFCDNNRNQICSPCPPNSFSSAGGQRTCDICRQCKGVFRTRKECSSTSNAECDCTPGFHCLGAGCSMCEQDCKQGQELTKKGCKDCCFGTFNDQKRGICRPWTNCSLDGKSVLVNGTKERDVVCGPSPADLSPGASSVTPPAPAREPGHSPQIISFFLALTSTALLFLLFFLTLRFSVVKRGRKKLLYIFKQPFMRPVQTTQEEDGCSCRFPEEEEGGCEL
Experiment [14] has as its target T1, cynomolgus monkey 4-1BB on CHO-K1 cells. The experiment can be described thus: FACS; FIG. 12F.
In experiment [15] the target is T2, human 4-1BB on CHO-K1 cells. Put plainly: FACS blocking of 4-1BBL; FIG. 14F.

human PD-L1 on CHO-K1 cells, sequence (Q9NZQ7 19-290): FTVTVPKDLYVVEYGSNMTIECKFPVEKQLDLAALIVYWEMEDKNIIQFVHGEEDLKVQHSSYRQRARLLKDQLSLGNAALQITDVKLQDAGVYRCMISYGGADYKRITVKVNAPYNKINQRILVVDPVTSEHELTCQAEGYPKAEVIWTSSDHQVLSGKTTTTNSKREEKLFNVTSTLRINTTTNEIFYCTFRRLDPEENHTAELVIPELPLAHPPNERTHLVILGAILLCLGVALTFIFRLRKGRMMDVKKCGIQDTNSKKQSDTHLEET

B1: PR007286 (antibody, V domains shown)
VH: EVQLVESGGGLVKPGGSLRLSCAASGFTFSDYYMSWIRQAPGKGLEWVSYISSSGSTIYYADSVKGRFTISRDNAKNSLYLQMNSLRAEDTAVYYCARVKPVAGTWDWFDPWGQGTPVTVSS
By EC50 is commonly meant the midpoint of the concentration-response curve. The IC50 is the point on the concentration scale where inhibition reaches its midpoint. B1: the EC50 stood at 4.61 nM in experiment [1] and 4.37 nM in experiment [2]. Besides, the IC50 in [3] was 7.54 nM.

B2: PR000448 (antibody, V domains shown)
VH: QVQLQQWGAGLLKPSETLSLTCAVYGGSFSGYYWSWIRQPPGKGLEWIGEIQHSGSTDSNPSLKGRVTFSVDTSKNQFSLKLNSVTAADTAVYYCARLTGPFDYWGQGTLVTVSS
VL: EIVMTQSPATLSVSPGERATLSCRASQSISSILAWYQQKPGQAPRLLIYGASTRATGIPARFSGSGSGTEFTLTISSLQSEDFAVYYCQQYYNWPLTFGGGTKVEIKR
On to B2, for which a half-maximal response in experiment [4] (EC50) required 2.05 nM.

B3: PR007291 (antibody, V domains shown)
VH: EVQLVESGGGLVKPGGSLRLSCVTSGFTFSDYYMNWIRQAPGKGQEWVSYISGNGSTIYYADSVKGRFTISRDNAKNSLYLQMNSLRAEDTAVYYCARVRPGGSGNYWDWFDPWGQGTPVTVSS
B3: the results for the EC50 in experiment [5] and in [6] were 1.95 nM and 2.47 nM, respectively. Moreover, the IC50 in experiment [7] is 3.29 nM.

B4: PR003549 (bispecific antibody)
light: DIQMTQSPSTLSASVGDRVTVTCRASQSIYIWLAWYQQKPGKAPNLLIYKASSLETGVPSRFSGSGSGTEFTLTISSLQPDDFATYYCQQYYGSSRTFGQGTKVEIKRTVAAPSVFIFPPSDEQLKSGTASVVCLLNNFYPREAKVQWKVDNALQSGNSQESVTEQDSKDSTYSLSSTLTLSKADYEKHKVYACEVTHQGLSSPVTKSFNRGEC
heavy: EVQLVESGGGLVQPGGSLRLSCAASGFTFSSYWMSWVRQAPGKGLEWVANIKQEGSEKYYVDSVKGRFTISRDNAKNSLYLQMNSLRAEDTAVYYCARDRAVAGAFDIWGQGTMVTVSSASTKGPSVFPLAPSSKSTSGGTAALGCLVKDYFPEPVTVSWNSGALTSGVHTFPAVLQSSGLYSLSSVVTVPSSSLGTQTYICNVNHKPSNTKVDKKVEPKSCDKTHTCPPCPAPEAAGGPSVFLFPPKPKDTLMISRTPEVTCVVVDVSHEDPEVKFNWYVDGVEVHNAKTKPREEQYNSTYRVVSVLTVLHQDWLNGKEYKCKVSNKALGAPIEKTISKAKGQPREPQVYTLPPSREEMTKNQVSLTCLVKGFYPSDIAVEWESNGQPENNYKTTPPVLDSDGSFFLYSKLTVDKSRWQQGNVFSCSVMHEALHNHYTQKSLSLSPGEPKSSDKTHTPPPPPRTEVQLLESGGGLVQLGGSLRLSCAASGFTFSRYAMTWVRQAPEKGLEWVSSISGSGDDTYYGDSVKGRFTISRDNSQNTVYLQMNSLRAEDTAVYFCAKEKAGTTGDYYYNVDVWGQGTTVTVSS
Take B4: the results for the EC50 in experiment [8], in [9] and in [10] were 1.86 nM, 1.9 nM and 1.56 nM, respectively.

B5: PR004469 (antibody, V domains shown)
VH: EVQLLESGGGLVQPGGSLRLSCAASGFTFSNYAMSWFRQPPETGLKWVSSIDASGGDTYYADSVKGRFTISRDNSKNTLYLQMNSLRAEDTAVYYCAKEGSHGTDDSHYDVDVWGQGTTVTVSS
Consider B5, for which the EC50 in [11] worked out at 0.568 nM; in experiment [12], 1.29 nM.

B6: PR001838 (antibody, V domains shown)
VH: EVQLLESGGGLVQPGGSLRLSCAASGFTFSNYAMSWFRQPPETGLKWVSSIDGSGGDTYYADSVKGRFTISRDNSKNTLYLQMNSLRAEDTAVYYCAKEGSHGTDDSHYDVDVWGQGTTVTVSS
As for B6, the EC50 turned out to be 0.248 nM in experiment [13], 0.329 nM in [11], 1.09 nM in experiment [14] and 0.851 nM in experiment [12]. The molecule also had an IC50 in [15] of 1.61 nM.

B7: PR007288 (antibody, V domains shown)
VH: EVQLVESGGGLVKPGGSLRLSCAASGFTFSDYYMSWFRQAPGKGLEWVSYISGSGSIIDYADSVKGRFTISRDNAKNSLYLQMNSLRAEDTAVYYCSREREAVAGTLDFDYWGQGTLVTVSS
Turning to B7, the results for the EC50 in experiment [1] and in experiment [2] were 0.903 nM and 1.21 nM, respectively. In experiment [3], this molecule gave an IC50 of 1.63 nM.

B8: PR007290 (antibody, V domains shown)
VH: EVQLVESGGGVVQPGRSLRLSCAASGFTFSDYYMSWFRQAPGKGLEWVSYISSSGTTIDYADSVKGRFTISRDNAKNSLYLQMNSLRAEDTAVYYCAREREEVAGTLDFDYWGQGTPVTVSS
As to B8, the EC50 in experiment [5] is 2.5 nM; in [6] it was 2.02 nM. In addition, the midpoint of inhibition in experiment [7], the IC50, lay at 5.11 nM.

B9: PR007287 (antibody, V domains shown)
VH: EVQLEESGGGLVKPGGSLRLSCAASGFTFSDYYMSWFRQAPGKGLEWVSYISSSGSITDYADAVKGRFNISRDNAKNSLYLQMNSLRAEDTAVYYCAREREAVAGTLDFDNWGQGTLVTVSS
With B9, the figures for the EC50 in experiment [1] and in experiment [2] were 1.17 nM and 1.55 nM, respectively. Half-maximal inhibition in experiment [3] (IC50) required 2.55 nM.

B10: PR007289 (antibody, V domains shown)
VH: EVQLVESGGGLVKPGGSLRLSCAASGFTFSDYYMSWFRQAPGKGLEWVSYISSSGSTQDYADSVKGRFTISRDNAKNSLYLQMNSLRAEDTAVYYCAREREPVAGTLDFDNWGQGTPVTVSS
In the case of B10, the EC50 in [5] was determined as 4.11 nM; in experiment [6], 2.49 nM. Also, in experiment [7], the IC50 turned out to be 11 nM.
